Patent US11912782B2, “BCMA monoclonal antibody-drug conjugate” (MedImmune, LLC, priority 2017, dated 2024)
Substitutions are numbered along the chain they refer to.

T1: monomeric human sBCMA (Homo sapiens, UniProt Q02223)
T1 construct: is comprised of the entire extracellular domain of the molecule; purchased GenScript
T1 sequence (Q02223 1-54 limits assumed): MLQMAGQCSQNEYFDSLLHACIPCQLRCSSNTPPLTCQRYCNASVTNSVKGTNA

B1: I09-SG3249: ADC: optimized clone I09 conjugated to the PBD payload SG3249 (conjugate)
VH: EVQLVESGGGLVKPGGSLRLSCAASGFTFSSYSMNWVRQAPGKGLEWVSSISGSSNYIYYADSVKGRFTISRDNAKNSLYLQMNSLRAEDTAVYYCARGGNYFVEYFQQWGQGTLVTVSS
VL: EIVLTQSPGTLSLSPGERATLSCRASQYISSNYLAWYQQKPGQAPRLLIYGASNRATGIPDRFSGSGSGTDFTLTISRLEPEDFAVYYCQQYSSDPITFGQGTKLEIK
B2: L15: lead optimized clone of 15B2GL; VH SEQ ID NO: 13, VL SEQ ID NO: 14 (antibody, V domains shown)
VH: B1 VH with S54Q, Q109Y
VL: B1 VL with Y33N, S93A, S94D, D95S
B3: P10: lead optimized clone of 15B2GL; VH SEQ ID NO: 19, VL SEQ ID NO: 20 (antibody, V domains shown)
VH: B1 VH with S30R, S54Q, F103Y, Q109Y
VL: B1 VL with S93T, S94D, D95S
B4: N22: lead optimized clone of 15B2GL; VH SEQ ID NO: 17, VL SEQ ID NO: 18 (antibody, V domains shown)
VH: B1 VH with Q109Y
VL: B1 VL with D95S
B5: M02: lead optimized clone of 15B2GL; VH SEQ ID NO: 15, VL SEQ ID NO: 16 (antibody, V domains shown)
VH: B1 VH with S54Q, F103Y, Q109Y
VL: B1 VL with Y33N
B6: I09: lead optimized clone of 15B2GL; VH SEQ ID NO: 11, VL SEQ ID NO: 12 (antibody, V domains shown)
VH: B1 VH
VL: B1 VL

Experiments:
[1] = test system: MM.1S cells; assay: Cell killing in the presence of soluble BCMA (conditioned media from Ad293 cells expressing human BCMA); format: cell-based
Method: Killing of multiple myeloma and plasma cell leukemia cell lines by antibody-drug conjugates comprising 15B2GL, or affinity-optimized clones thereof, conjugated to SG3249 was evaluated in vitro using the protocol recommended in the CELLTITER-GLO® kit (Promega, Madison, Wis.). Killing of multiple myeloma and plasma cell leukemia cell lines by the free warhead SG3199 also was evaluated using the protocol recommended in the CELLTITER-GLO® kit (Promega, Madison, Wis.). Briefly, 5×10^3 cells in 80 μL RPMI+10% FBS were added to the inner wells of white-walled 96-well plates (Corning® Costar®, Fisher Scientific, Waltham, Mass.). The following BCMA-expressing cell lines were tested: NCI-H929, EJM, MM.1R. JJN3, OPM-2, MM.1S, U266.B1, and L363. BMCA-negative cell lines Raji and Jurkat also were tested. The antibody-drug conjugates were diluted to a 5× stock (2.5 μg/mL) in RPMI+10% FBS. Treatments were then serially diluted 1:3 in RPMI+10% FBS. 20 μL of this series was added to the cells in duplicate, resulting in a 12-point dose curve of antibody-drug conjugate ranging from 0.5 μg/mL at the highest concentration to 3×10^−[…] at the lowest. Isotype antibody-drug conjugate (IgG1-SG3249 and IgG1-mc-MMAF) and media-only controls also were included. Plates were incubated at 37° C., 5% CO2 for 96 hours. At the end of the incubation period, 100 μL of the Substrate Solution (Promega, Madison Wis.) was added to each well. Luminescence was measured using an EnVision™ Multilabel plate reader (Perkin Elmer, Waltham, Mass.). Data were analyzed and graphed using GraphPad Prism™ software (GraphPad Software, Inc., La Jolla, Calif.), and the half-maximal inhibitory concentration (IC50) was determined.
The ability of the 15B2GL-SG3249 ADC to kill multiple myeloma cells in vitro in the presence of soluble BCMA (sBCMA) as compared to the I09-5G3249 ADC was evaluated in MM.1S cells using the protocol described above, except that tested cell lines also were treated with BCMA-containing conditioned media collected from Ad293 cells expressing human BCMA (FIGS. 3A and 3B). 15B2GL-SG3249 ADC cell killing in the presence of sBCMA also was compared to ADCs comprising the anti-BCMA antibody J6M0, which is described in U.S. Pat. No. 9,273,141.

[2] = test system: MM.1S xenograft; assay: MM.1S subcutaneous xenograft model (Example 9); format: in vivo, mouse; conditions: 3 mg/kg intravenous, observed for 85 days post tumor implantation
Text: (§1) Subcutaneous xenograft mouse models of multiple myeloma and plasma cell leukemia were generated by implanting BCMA-expressing multiple myeloma or plasma cell leukemia cell lines (i.e., NCI-H929 and MM.1S) into female CB-17 SCID (C.B-17/IcrHsd-Prkdc-scid) mice using MATRIGEL™ (BD Biosciences, San Jose, Calif.). Once tumors reached approximately 200 mm^3 (NCI-H929 cells) or 180 mm^3 (MM.1S cells), mice were randomized based on tumor size and placed into dosing groups and treated with BCMA-targeting ADCs as described below.
Mice were treated with either a single intravenous dose of the ADCs IgG1-SG3400 or 15B2GL-SG3400 at 1 mg/kg or 3 mg/kg or dosed intravenously with J6M0-SG3400 at a dose of 1 mg/kg or 3 mg/kg. Control mice were left untreated.

[3] = test system: NCI-H929 xenograft; assay: NCI-H929 subcutaneous xenograft model (Example 5); format: in vivo, mouse; conditions: single intravenous dose 0.3 mg/kg, observed for 99 days post tumor implantation
Text: as §1, with “(i.e., NCI-H929, JJN-3, MM.1S,” for “(i.e., NCI-H929”, “and MM.1R)” for “and MM.1S)”, “(C.B-17/IcrHsd-Prkdc-scid) or athymic nude (Foxn1^nu)” for “(C.B-17/IcrHsd-Prkdc-scid)”, “approximately 180” for “approximately 200”, “(NCI-H929 cells), 190 mm^3 (JJN3 cells), 160” for “(NCI-H929 cells) or 180”, “(MM.1S cells), or 175 mm^3 (MM.1R” for “(MM.1S”
Mice were treated with either a single intravenous dose of the ADCs 15B2GL-SG3249, I09-5G3249, L15-SG3249 at 0.3 mg/kg or dosed intravenously with J6M0-mc-MMAF weekly at a dose of 0.3 mg/kg for 2 weeks. Control mice were left untreated.

[4] = test system: JJN3 xenograft; assay: JJN3 subcutaneous xenograft model; format: in vivo, mouse; conditions: single intravenous dose 1 mg/kg, observed for 104 days post tumor implantation
Text: as §1, with “(i.e., NCI-H929, JJN-3, MM.1S,” for “(i.e., NCI-H929”, “and MM.1R)” for “and MM.1S)”, “(C.B-17/IcrHsd-Prkdc-scid) or athymic nude (Foxn1^nu)” for “(C.B-17/IcrHsd-Prkdc-scid)”, “approximately 180” for “approximately 200”, “(NCI-H929 cells), 190 mm^3 (JJN3 cells), 160” for “(NCI-H929 cells) or 180”, “(MM.1S cells), or 175 mm^3 (MM.1R” for “(MM.1S”
Mice were treated with either a single intravenous dose of 15B2GL-SG3249, 109-SG3249, and L15-SG3249 ADCs at 1 mg/kg, or dosed intravenously with J6M0-mc-MMAF ADC weekly at a dose of 1 mg/kg for 3 weeks. Control mice were left untreated.

[5] = test system: MM.1S xenograft; assay: MM.1S subcutaneous xenograft model (Example 5); format: in vivo, mouse; conditions: single intravenous dose 1 mg/kg, observed for 99 days post tumor implantation
Text: as §1, with “(i.e., NCI-H929, JJN-3, MM.1S,” for “(i.e., NCI-H929”, “and MM.1R)” for “and MM.1S)”, “(C.B-17/IcrHsd-Prkdc-scid) or athymic nude (Foxn1^nu)” for “(C.B-17/IcrHsd-Prkdc-scid)”, “approximately 180” for “approximately 200”, “(NCI-H929 cells), 190 mm^3 (JJN3 cells), 160” for “(NCI-H929 cells) or 180”, “(MM.1S cells), or 175 mm^3 (MM.1R” for “(MM.1S”
Mice were treated with either a single intravenous dose of 15B2GL-SG3249, 109-SG3249, L15-SG3249 ADCs at 1 mg/kg or dosed intravenously with J6M0-mc-MMAF twice weekly at a dose of 1 mg/kg for 4 weeks. Control mice were left untreated.

[6] = biological target: T1, monomeric human sBCMA; assay: Kinetics/affinity measurement by SPR (BioRad ProteOn XPR36), antibody captured by anti-Fc, sBCMA flowed over; format: binding; conditions: for Koff / Kon: sBCMA 100-6.25 nM; for Kd: unit inferred
Method: The binding of 15B2GL monoclonal antibody and optimized clones I09, L15, P10, N22, and M02 (described in Example 1) was assessed using monomeric human sBCMA (GenScript, Piscataway, N.J.) using a ProteOn™ XPR36 instrument (Bio-Rad, Hercules, Calif.). The binding of J6M0 also was assessed for comparison. Standard amine coupling was used to immobilize 25 μg/ml anti-Fc polyclonal antibody (Jackson ImmunoResearch, West Grove, Pa.) prepared in 10 mM sodium acetate buffer (pH 4.5) to the surface of a ProteOn™ GLC biosensor chip (Bio-Rad, Hercules, Calif.) pre-activated with 20 mM EDAC (1-ethyl-3-(3-dimethylaminopropyl)carbodiimide hydrochloride) and 5 mM Sulfo-NHS (N-hydroxysulfosuccinimide) at a density of ˜200-600 resonance units (RU). 15B2GL, I09, L15, P10, N22, M02, and J6M0 were subsequently injected at a concentration of 1 μg/ml for capture by the immobilized anti-Fc polyclonal antibody. The sensorgram was recorded by flowing two-fold serial dilutions of sBCMA prepared in PBS (pH 7.4) with 0.005% (v/v) Tween®-20, ranging from 100-6.25 nM, over the captured surface for 150 seconds at 75 μL/minute with dissociation time of 600 seconds. ProteOn™ data analysis software was used to analyze the data.

Molecule | Koff [6] | Kon [6] | Kd [6] | also measured
J6M0-SG3249: ADC comprising the anti-BCMA antibody J6M0 and SG3249 | – | – | – | IC50 ([1]; sBCMA 0 ng/mL): 0.004816 µg/mL; IC50 ([1]; sBCMA 75 ng/mL): 0.01283 µg/mL; Fold loss of potency ([1]; sBCMA 75 ng/mL vs 0): 2.66; IC50 ([1]; sBCMA 270 ng/mL): 0.03226 µg/mL; Fold loss of potency ([1]; sBCMA 270 ng/mL vs 0): 6.70; IC50 ([1]; sBCMA 720 ng/mL): 0.09292 µg/mL; Fold loss of potency ([1]; sBCMA 720 ng/mL vs 0): 19.29
J6M0-SG3400: BCMA-targeting ADC of J6M0 with SG3400 | – | – | – | tumor regrowth [2]: no evidence of tumor regrowth
B1 | – | – | – | tumor regrowth [3]: no evidence of tumor regrowth; tumor regrowth [4]: no evidence of tumor regrowth; tumor regrowth [5]: no evidence of tumor regrowth
B2 | 3.86E−03 | 8.54E+05 | 4.51 nM | –
B3 | 3.73E−03 | 7.01E+05 | 5.32 nM | –
B4 | 8.73E−03 | 5.36E+05 | 16.3 nM | –
B5 | 4.97E−03 | 4.99E+05 | 9.95 nM | –
B6 | 5.99E−03 | 6.09E+05 | 9.82 nM | –
